Source: PMC2928814, “Host Imprints on Bacterial Genomes—Rapid, Divergent Evolution in Individual Patients”

Target: T1, Fur (ferric uptake regulator) (Escherichia coli (strain of the fur …, UniProt P0A9A9 1-148))
T1 sequence: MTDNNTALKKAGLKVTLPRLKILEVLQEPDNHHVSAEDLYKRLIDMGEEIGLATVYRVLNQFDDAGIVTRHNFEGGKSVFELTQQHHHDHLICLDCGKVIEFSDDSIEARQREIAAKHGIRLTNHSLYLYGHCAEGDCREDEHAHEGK
Assay: EMSA; dimer and tetramer complexes; EMSA as in cited ref 52, binding buffer not given; annealing buffer 10 mM Tris-HCl, 50 mM NaCl, 1 mM EDTA
Settings: protein: recombinant; tags: IMPACT system (intein tag, self-cleaved; no residual tag stated); chain copies: 4; label: Cy3 at 3' end of S3 as printed; blunt

B1: fecIR Fur box, E. coli 83972 (dsDNA)
DNA 1: TCCAATTGTAATGATAACCATTCTCATATTAATATGACTACGTGA
DNA 2: TCACGTAGTCATATTAATATGAGAATGGTTATCATTACAATTGGA
B1: binds.
